Bridge positions count the residues as written; N and C are the ends. Square brackets hold non-standard residues; d marks the D form. Ends that are not written are not given here.
B1: CD59 (immobilized for SPR) (receptor)
chain: LQCYNCPNPTADCKTAVNCSSDFDACLITKAGLQVYNKCWKFEHCNFNDVTTRLRENELTYYCCKKDLCNFNEQLEN

Columns and labels:
Test in all cases: SPR
CP-02 = biological target: CP-02
CP-03 = biological target: CP-03
CP-13 = CP-13 (N-terminal Ac-D-Tyr cyclized to a C-terminal Cys (thioether macrocycle))
CP-04 = biological target: CP-04
rILYd4 = rILYd4 (Streptococcus intermedius, UniProt Q9LCB8 1-532)
[1] = biological target: B1
[2] = biological target: B1

Binder: B1
- Kd (CP-02): 0.0153 µM
- Kd (CP-03): 0.0234 µM
- Kd (CP-13): 0.0108 µM
- Kd (CP-04): 0.0119 µM
- Kd (rILYd4): 0.0483 µM

B2: CP-06 (peptide)
chain: {CH2CO}-[dY]SWTWGNRSSVRGC
modifications: thioether N-14
- koff [1]: 0.0204 s⁻¹
- Kd [2]: 0.0113 µM
